Experimental data from patent US20140017790A1, “CONTROL AGENT FOR CONTROLLING UNDIFFERENTIATED STATE AND USE THEREOF” (RIKEN, priority 2011, published 2014).

How the values were obtained:
Type in all cases: cell-based
[1] = system: human iPS cells; test: culture of human iPS cells in feeder free media, EB plating, cell adhesion
Text: As undifferentiated cells, the same human iPS cells as used in Example 7 were used. As CCL2, the mouse recombinant CCL2 used in the item (1) of Example 2 was used. As feeder free media, the following three kinds of media were provided by adding or not adding the CCL2, LIF and bFGF to the medium for human stem cells used in Example 8. Specifically, the media used were as follows: the medium with CCL2 not added (−)/LIF not added (−)/bFGF added (+); the medium with CCL2 added (+)/LIF not added (−)/bFGF not added (−); and the medium with CCL2 added (+)/LIF added (+)/bFGF not added (−). In each medium, the concentration of the LIF was set to 50 units/ml, the concentration of the CCL2 was set to 500 ng/ml, and the concentration of the bFGF was set to 5 ng/ml. Then, the human iPS cells were cultured for 6 days using each medium, and EBs were produced. Thereafter, the thus-produced EBs were seeded in gelatin coated dishes so that each gelatin coated dish contained one EB, and cultured for 5 days in a medium (DMEM) containing 20% FBS.
The photographs in FIG. 20 show the cell morphologies of the EBs on the 5th day from the plating.

[2] = system: human iPS cells; test: EB formation and spontaneous differentiation, cell morphology; settings: third day from the plating; iPS cells precultured 6 days with the substance
Experimental: Human iPS cells were cultured for 6 days under feeder conditions in the same manner as in Example 7. Thereafter, embryonic bodies (EBs) were produced. EB formation is known as a spontaneous differentiation-inducing method for inducing the differentiation of iPS cells. Specifically, first, a ROCK inhibitor (Y-27632, WAKO) was added to the culture solution being used for the culture of the human iPS cells so that the concentration thereof was […], and the human iPS cells were cultured for 1 hour under the conditions of 37° C. and 5% CO2. Then, the feeder cells used for the culture were dissociated with a human ES/iPS cell dissociation solution (CTK solution), and the human iPS cells were collected. Then, 1×10^6 of the human iPS cells were seeded in an ultra-low adhesion culture vessel, and cultured for 6 days in an EB preparation medium (DMEM/F12, Knockout SR, L-glutamine, NEAA (non-essential amino acid (GIBCO)), 2-ME, Pen/Strep). The medium was replaced every two days.
Next, spontaneous differentiation was induced. Specifically, the produced EBs were seeded in gelatin coated dishes so that each gelatin coated dish contained one EB. Each EB was cultured for 14 days in a medium (DMEM) containing 20% FBS, and then observed with a microscope. The medium was replaced every two days. The photographs in FIG. 18 show the cell morphology on the third day from the plating.

[3] = system: mouse iPS cells; test: quantitative RT-PCR of undifferentiated marker genes, recombinant CCL2 added to mouse iPS cells under feeder free conditions
Experimental: A PrimeScript RT-PCR Kit (trade name, TAKARA BIO INC.), an ABI 7500 Fast real time PCR system (trade name, Applied BioSystems), and a SYBR (registered trademark) Premix Ex Taq (trade name, TAKARA BIO INC.) were used in accordance with their protocols. PCR was carried out by conducting 40 cycles of treatment with a treatment at 94° C. for 5 second and at 62.5° C. for 20 seconds as 1 cycle. The expression level of each gene was calculated by normalizing the relative amount of mRNA in the gene to Gapdh mRNA according to the 2^−ΔΔ^CT method (Thomse R, Solvsten C A, Linnet T E, et al., Analysis of qPCR data by converting exponentially related Ct values into linearly related XO values. J Bioinform Comput Biol 2010: 8: 885-900.).
The medium of a negative control used was the above-described DMEM containing the above-described LIF. […]
Furthermore, after the culture of the mouse iPS cells, the expression level of the Tbx3 gene was determined in the same manner as in the item (1) of Example 1. Then, the fold change in expression level relative to the negative control was calculated. […]
The mouse iPS cells cultured under the feeder free conditions were cultured in the medium of the example and the medium of the comparative example, respectively. […] 24 hours after the culture, the expression levels of the undifferentiated marker genes were determined in the same manner as in the item (1) of Example 1. […]

[4] = system: KLF4; test: KLF4/GAPDH ratio in human iPS cells; settings: feeder conditions, 6 days, negative control (bFGF) = 1
Experimental: Then, the ratio of the phosphorylated AKT to the non-phosphorylated AKT (p-AKT/AKT) was determined. Assuming that the value of the p-AKT/AKT in the negative control was “1”, the relative value was calculated. Also, the ratio of the KLF4 gene expression to the GAPDH gene expression (KLF4/GAPDH) was determined. Assuming that KLF4/GAPDH in the negative control was “1”, the relative value was calculated.
Also, the ratio of KLF4 to GAPDH (KLF4/GAPDH) was determined. Assuming that KLF4/GAPDH in the negative control was “1”, the relative value was calculated. FIG. 15D is a graph showing the relative value of the ratio of KLF4 to GAPDH (KLF4/GAPDH).

B1: CCL2: mouse recombinant CCL2 (MCP-1, #479-JE-010, R&D Systems); in Examples 1, 3, 4(1), 5 mouse CCL2 (SEQ ID NO: 3) overexpressed from Ccl2 expression vector (protein, listed as Mus musculus)
chain: MQVPVMLLGLLFTVAGWSIHVLAQPDAVNAPLTCCYSFTSKMIPMSRLESYKRITSSRCPKEAVVFVTKLKREVCADPKKEWVQTYIKNLDRNQMRSEPTTLFKTASALRSSAPLNVKLTRKSEANASTTFSTTTSSTSVGVTSVTVN
cell adhesion ([1]; CCL2 500 ng/ml + LIF 50 units/ml, bFGF not added): observed | colony growth ([1]; CCL2 500 ng/ml + LIF 50 units/ml, bFGF not added, culture for 5 days): observed | cell adhesion ([1]; LIF not added, CCL2 500 ng/ml alone or bFGF 5 ng/ml alone): observed | morphology of EB after spontaneous differentiation-inducing culture [2]: ES cell-like morphology | expression level of the Tbx3 gene ([3]; recombinant CCL2 500 ng/ml added to PI3K inhibitor 5 ng/ml + LIF 25 units/ml): further increase | expression of each undifferentiated marker gene ([3]; recombinant CCL2 2500 ng/ml, no LIF, feeder free, 24 hours, relative to LIF 1000 units/ml): increased markedly | KLF4 expression (KLF4/GAPDH), relative value [4]: about 1.7 fold
